For one experiment, the target named is Human CXCR4 (human) (UniProt P61073).
For the next experiment, the target named is CXCR4-FlAsH228 (human) (UniProt P61073).

EC50 of CXCL12 for Gi1 activation, one representative experiment of Fig. 1D data for one substance are collected here from PMC7330677.

In the case of “Recombinant human CXCL12 (from UniProt P48061 22-93) (ligand)”, the values for the EC50 of CXCL12 for Gi1 activation, one representative experiment of Fig. 1D in the experiment with Human CXCR4 (human) and with CXCR4-FlAsH228 (human) were 3.3 nM and 14.7 nM, respectively.
